Experimental data taken from the DeepSol protein solubility set.

Test: soluble on expression in E. coli; label from the status in PepcDB or PDB records

Sequence: MAENRYELNKNLAQMLKGGVIMDVQNPEQARIAEAAGAAAVMALERIPADIRAVGGVSRMSDPKMIKEIQGAVSIPVMAKVRIGHFVEAQILEAIEIDYIDESEVLSPADNRFHVDKKEFQVPFVCGAKDLGEALRRIAEGASMIRTKGEPGTGDIVQAVRHMRMMSQEIRRIQNLREDELYVAAKDLQVPVELVQYVHKHGKLPVVNFAAGGIATPADAALMMQLGAEGVFVGSGIFKSGDPIKRASAIVKAVTNYRNPQILAQISEDLGEAMVGINENEIQILMAERGKLEHHHHHH
- soluble on expression in E. coli: not soluble

Sequence: GVLAPVVPGKALEFPQDFGAHNDFRIEWWYVTGWLETPTGKPLGFQITFFRTATEIDRDNPSHFAPDQLIIAHVALSDPAIGKLQHDQKIARAGFDLAYARTGNTDVKLDDWIFVRETDGRYRTRIEAEDFTLTFILTPSQPLMLQGENGFSRKGPGAPQASYYYSEPHLQVSGIINRQGEDIPVTGTAWLDREWSSEYLDPNAAGWDWISANLDDGSALMAFQIRGKDDSKIWAYAALRDASGHTRLFTPDQVSFHPIRTWRSARTQAVYPVATRVLTGETEWQITPLMDDQELDSRASAGAVYWEGAVTFTRDGQPAGRGYMELTGYVRPLSM
- soluble on expression in E. coli: soluble

Sequence: MSLDRVYHEFGATLRQLYQQDTPIIALCAAGIVIRTLAPLLLEKGAEPPVLAVAEDGSAVVPLLGGLGGVNVMAREIAAGLGVAAAITTSGELRFGTCLLNPPSGYALGDLELGKRFVSDLLGGESVRIEGAAPWLAAAKLPENDQARLTIRVGSAEREPVANELLIYPRSVLVACRGQRLAGEADSDLATHIRQALHQARIAVQSVACLLAADRDMADRALHQAAAQLGVPLRFLPAADSVAELAQQAVPQLLPPLKVGEDIAIAVASQPLDPEQIGRPREGHHHHHH
- soluble on expression in E. coli: not soluble

Sequence: MAHHHHHHMKSLENNEMHNLCPIHYYFNGRDYNSDTIINNVNIKYFNMDNCLGNANLHMDYLNPVLNHPTKIEHGKIKILILDAPTNDLLPLYIKEMKNYNVTDLVRTCERTYNDGEIQDAGINVHELIFPDGDAPTEDIVSNWLNIVNNVIKNNCAVAVHCVAGLGRAPVLASIVLIEFGMDPIDAIVFIRDRRKGAINKRQLQFLKEYRKKKKKKNCLRKCHFM
- soluble on expression in E. coli: not soluble

Sequence: MSLSNTPIELKGSSFTLSVVHLHEAEPEVIRQALEDKIAQAPAFLKHAPVVINVSGLESPVNWPELHKIVTSTGLRIIGVSGCKDASLKVEIDRMGLPLLTEGKEKAVRPAPVEPATPSEPPQNANPITKTRLIDVPVRSGQRIYAPQCDLIVTSHVSAGAELIADGNIHVYGMMRGRALAGASGDREAQIFCTHLTAELVSIAGVYWLSDKIPAEFYGKAARLRLADNALTVQPLNEGHHHHHH
- soluble on expression in E. coli: soluble

Sequence: MLTLLRRGLLVFLAAFPLLSMAAPTPQQVVQGTVDELLSDIKANKAAYKADPQKLYATLDRILGPVVDAEGIAKSVMTVKYSRQASPEQIKRFEEVFKNSLMQFYGNALLEYDNQDIRVLPSSAKPSDDRASVNMEIRDSKGTVYPVSYTMTNLAGGWKVRNVIINGINIGKLFRDQFADTMQKNRNDLEKTIAGWGEVVAKAKETAKAEEAGAKAAALEHHHHHH
- soluble on expression in E. coli: soluble

Sequence: MNPQRDCKEFKVETRTITEVQSEPIYPTGRCGPVLARIPVVISQSKVHIDIESRVCFDHSVFDIYSHSRNIYLTQCKLLNMGNKRYGKIYLNGYVSENIAYAAYCMKGREYGNKKSTSADMLYKTLKVPFECVAKIEYCTSPVFKTSNGFIPVALPDKENSPEDSYFSGERLFCELDEASICESNVERKKLFSRINAGEDSFDTLTEYLVLSITFTLLQWQQVRIPGYFPNNPHSQI
- soluble on expression in E. coli: not soluble

Sequence: GSARDISSTNVTDLTVSPSKIEDGGKTTVKMTFDDKNGKIQNGDMIKVAWPTSGTVKIEGYSKTVPLTVKGEQVGQAVITPDGATITFNDKVEKLSDVSGFAEFEVQGRNLTQTNTSDDKVATITSGNKSTNVTVHKSEAGTSSVFYYKTGDMLPEDTTHVRWFLNINNEKSYVSKDITIKDQIQGGQQLDLSTLNINVTGTHSNYYSGQSAITDFEKAFPGSKITVDNTKNTIDVTIPQGYGSYNSFSINYKTKITNEQQKEFVNNSQAWYQEHGKEEVNGKSFNHTVHNINANAGIEGTVK
- soluble on expression in E. coli: soluble

Sequence: MNRMSLAALLSCLPLVAWADNPVKLDTPVSGWRAGDGSAANYRQVVNYPASSVNVAADQATTARIRGAIESQPKDRPATLVVNGVSMPLKVDADGSFDRPFAFPSGSNSVEVRNAAGQSRRVQFYHGGGGGEVPAKLRVLLSWDSDNTDLDLHLVTPDGDHVWYGNRSLANGATLDVDVTTGYGPEIIATPTPQKGPYLVYVNYFGGGYGSSEDGAEQAAQDLTTARITLVTEEGTPNEKQETFLVPMRKPGELTLVKRFSYP
- soluble on expression in E. coli: not soluble

Sequence: MAPRGRYGPPSRRSENRVVVSGLPPSGSWQDLKDHMREAGDVCYADVYRDGTGVVEFVRKEDMTYAVRKLDNTKFRSHEGETAYIRVKVDGPRSPSYGRSRSRSRSRSRSLEH
- soluble on expression in E. coli: soluble

Sequence: MGSDKIHHHHHHVGFLDGLMGGKQAPLVGLDISSSSVKLVELGQSASGQYVLERFATESFERGWIADGQIEKFDEVADAVRRVVSKSGTRSKRVAMAMPQSAVITKKIMLPAGLRDEELELQVESEANQYIPFSLDEVSLDFCVVGPSPSSVGDVEVLIAASRKDRVQDRQGLAEAAGLKPVVLDIESHASRLAMMRIVSALPNEGRDALVALFEIGAETTSLKVLRDEELLYDRDQAFGGSQLTQMISRQYGFSFEEAEQKKLASDLPEDYESSLLVPFVDSLAQEIGRALQYFFTSTPHHKVHYVMLGGGTATLPGLKERVTELTGFASMVVNPFEGMRLGSAVRESKLRREAPAYLTACGLAMRRFL
- soluble on expression in E. coli: not soluble

Sequence: MRGSHHHHHHGSDLGKKLLEAARAGQDDEVRILIANGADVNAVDNTGLTPLHLAAVSGHLEIVEVLLKHGADVDAADVYGFTPLHLAAMTGHLEIVEVLLKYGADVNAFDMTGSTPLHLAADEGHLEIVEVLLKYGADVNAQDKFGKTAFDISIDNGNEDLAKSCRN
- soluble on expression in E. coli: soluble

Sequence: GHMPTKQQLLYEGKAKKIYATDEPDVLWVEYKDSATAFNGEKKATIAGKGRLNNEISSLLFLKLREAGIANHFIEKLSPTEQLVRRVTIIPLEVVVRNVVAGSLAKRIGLEEGTPLEAPLVEFYYKNDDLGDPLLLEDHIFILKLASREEVAALKQAALAVNDVLRLHFAERNVRLIDFKLEFGRTADGAILLADEISPDTCRLWDAKTNEKLDKDVFRRDLGSLTDAYEVILQRLGGESACTK
- soluble on expression in E. coli: soluble

Sequence: MKAANSGRTAAALECFERVVKLQSTPVNWSYLAFCVARERQQFEHATRLCEEAVRREPRSSVLYLNLGKVYLLSGRKDDAIRTFRQGLLYERNTLIESELRRLGLRKPPVLNFLAREHPVNKYLGIMLKKLKIRLEHHHHHH
- soluble on expression in E. coli: not soluble

Sequence: MSLKPLIKIETERTSLIYQVADNGRLYQKYLGKKLNHDSDIQYLPQGTEAYLTHGMEDYFEPAIHIRHNDNNSSLLLKYVDHSSNAIGNGVNETVITLKDDKYPVTVKLHYVAYGKENIIRTFTEISHEEKKPVILCKYASSMLHLNSSKYFLTEFSGDWAHEANVTERELAFGKKVIDTKLGARANMFVSPFFQLALDNPSQENAGEVLVGTIGWTGNFRFTFEVDNKNELRIISGINPYDSEYSLPAREVFRTPDFYFTYSTQGKGEASRNFHDWARNHQVKNGNDTRMTLLNNWESTYFDFDENKLIGLMDEATKLGVDMFLLDDGWFANKYPRSSDHQGLGDWEETADKLPNGVGRLVEEAQKKGIKFGIWIEPEMVNPKSELYEKHKDWVIHLPNRDEYYFRNQMVLDLSNPKVQDHVFGVVDNLMTKYPGIAFFKWDCNSPITNIYSVYLKDKQSHLYVDYVRGLYKVLDRIKAKYPNLPMMLCAGGGGRSDYEALKYFTEFWPSDNTDPIERLFIQWGYSQIFPSKTLCAHVTTWNRGTSIKFRTDVAMMCKLGFDIKLEDMNQNEHLYCDQAVKNYNRLKPVILEGDLYRLVSPYGSNHTSSMFVGKDKKTAAVFAFDIHPRYAEKTLPVRLQGLNADKKYRVKEINMMPGSGSSLKGNNQVFSGEYLMNVGLDLFTTQQLNSRLIEITEEGHHHHHH
- soluble on expression in E. coli: soluble

Sequence: MQIKLPKPFFFEEGKRAVLLLHGFTGNSSDVRQLGRFLQKKGYTSYAPQYEGHAAPPDEILKSSPFVWFKDALDGYDYLVEQGYDEIVVAGLSLGGDFALKLSLNRDVKGIVTMCAPMGGKTEGAIYEGFLEYARNFKKYEGKDQETIDNEMDHFKPTETLKELSEALDTIKEQVDEVLDPILVIQAENDNMIDPQSANYIYDHVDSDDKNIKWYSESGHVITIDKEKEQVFEDIYQFLESLDWSE
- soluble on expression in E. coli: not soluble

Sequence: MSLVEMKFLTDRMLGRLTRWLRISGYDTVSVSELEFDEEEDEFMLRNLRDRILLTKDRELYRKSVKEGRKAILIRSDSLEGQMRELMERGVKFQIVMDRCSLCNTPLRKPSREEAMEVIEREKLSEDMLEFELWYCEKCRKLYWMGGHWKNMTRFLRKFESEGHHHHHH
- soluble on expression in E. coli: soluble

Sequence: MGSDKIHHHHHHMSNAEWLNALETPFLLIDEFRFQRNIDRLYQRTKNLGSQVRPHLKTLRSIEAGRYLLKDSASPATVSTLAEAEAFAGAGYTNLLYAVGIAPHKLPRIANLIHKGVNLHILLDSVEQARAVTDYALANNVTFSVFIEIDCDGHRGGIPPESDALLELAQQIDGNGATLTGLLAHAGESYACRTDEAIRAAARAECAAINIAGRRVRALGIACPVLSVGATPTAHFAEDLTGITEVRAGVFTTFDLVMKNVGVCSLDDIALSVVSTVIGHNREKGWVFIDAGWMALSRDRGTASQAKDYGYGLVCDLHGSPYHDLCVTVTNQEHGIIALPTDSGFSVDNFPVGTRLRILPNHACATAAMHQHYQVLKSHRHEQETWQRITGW
- soluble on expression in E. coli: not soluble

Sequence: MSEQTLEYFLNKGTIRRKDAADIEWYHAANSKSKLMEALRGSAQMIEADVLLRGADPEEPIMAHPPAKDSDITLQDWLKEVVKTDKGIKLDFKSLAAVSQSMSLLEEIRDQLKGPVWINADILPGPGGTATPVDPHVFLQEVAQRSENDVLSLGWTTGWTANVDNPGYSWEMVHQMEELCRPLKQPVTFPVRASLLPMSFPQFQWLLEQSDRSEILH
- soluble on expression in E. coli: not soluble

Sequence: MWNETWNEITNELIQLSREPESEIPRITAEQRAYLKLVRPAAFVEGIAVLRVPHSRAKETIETHLGQAITSVLSRRMGRPFTVAVTVDPTLDVIQDLPHDVPEQHIVQHHVPEHPHYSPVSQGYPPHYAPEQSEYNTEYSDEYPSGWATYHVQTPQPSQSSQSAQQQPAQRMPDRRRYA
- soluble on expression in E. coli: not soluble

Sequence: GPGSMHSTPAKEAEAEGYMRSGKKHLQKKLLQFKANYGGAAEDFDKAARIYTNLRNYPKAREAWTQACEAHSKAHNDFNAANSMEKLGDLASQCICESQSTMSSGSTAGMTAQLSEHLFQDAIHAYEEASKLYGVATNGSKQAAVLKKAADLISRSLATVHYRRPGTSGATTVDTAYLQKEYKRIIPELIELMERNWAATESKPFGLPDIYRSHVLLHLRSGDVEGAVHAEKRMIGIVSTSPADGTYDDSKNLFRILNQPSNAAKVGLEIVVLCLSTSVDDGYTWANIEMGRLGAVFGFCGSSEERAAAALLAAYAERDEDALQEALKTNTCFNFLAADVSRIAKKLTLGSKGHSKETGASVAAAGGPERSAAPPSSSQAPVDASETDSEDLR
- soluble on expression in E. coli: soluble

Sequence: MKSSLSLLLLTSALSNFALATEIKSGGETSTTKEGANAFSMPAANLPMAKRLDFSVGNSFFRNPWVPAPASTDARDGLGPLFNTNGCQNCHIKDGRGHPPEPNDTQAVSMLVRLSIPAVTEQQKAIYAVNGVVPEPTYGGQLQDFSLPDQKPEGRIHITYDEVVVTFADGTPVALRKPNLKILDLAYGEMHPDVQMSARVAPPMIGLGLLEAIPDATLLQWADPEDRDGDGISGRVNQVRDVRTGEMAIGRFGWKAGQPNIMQQNAAAFNGDLGLTSHLFPQENCTEKQTLCRDLPNGGSPEVSDNILDFVEFYAQHLAVPVRRNVQDPQVQLGEKLFAQAGCQSCHKTNVLTQELAERPALSKQRIQPYTDLLLHDMGEGLSDGRPEALASAREWRTAPLWGIGYTQEVNGHTYFLHDGRARNVLEAVLWHGGEAQASRDKVLQFDKAQREALVAFLNSL
- soluble on expression in E. coli: not soluble
